Experimental findings from patent US20150344570A1 (published 2015) are described below.

Substitutions are numbered along the chain they refer to. Names may count otherwise.

The target in assay [1] is T1, FcγRIIb, extracellular domain with C-terminal His tag (human, UniProt P31994 43-217).
T1 construct: extracellular domain; also called FcgRIIb; 2b; not shown: His tag attached to the C terminus
T1 sequence (looked up): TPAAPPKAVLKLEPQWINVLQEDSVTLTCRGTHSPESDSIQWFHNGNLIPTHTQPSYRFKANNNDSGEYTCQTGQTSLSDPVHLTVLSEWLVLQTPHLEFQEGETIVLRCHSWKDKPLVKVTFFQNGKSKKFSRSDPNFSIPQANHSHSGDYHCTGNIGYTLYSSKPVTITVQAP
The assay is described as follows: SPR (Biacore T100), antibody captured on antigen peptide chip, FcγR as analyte; binding amount relative to control heterodimerized antibody. On the procedure: (§1) The heterodimerized antibodies He Abs in which one of the H chains was introduced with an alteration were assayed for their binding activities to each activating FcγR and inhibitory FcγR according to the method described in Example 4. […] The activating FcγRs in FIGS. 26, 27, 28, and 29 are FcγRIa, FcγRIIa (R), FcγRIIa (H), and FcγRIIIa, respectively.
(§2) Analysis of interaction between objective antibody and the FcγR was carried out using Biacore T100 (GE Healthcare). HBS-EP+ (GE Healthcare) was used as the running buffer, and the measurement temperature was set to 25° C. Chips produced by immobilizing the antigen peptide by the amine coupling method to a Series S Sencor Chip CM5 (GE Healthcare), or alternatively, chips produced by allowing preliminarily biotinylated antigen peptides to interact with and immobilize onto a Series S Sensor Chip SA (certified) (GE Healthcare) were used. Antibodies of interest were captured onto an antigen peptide-immobilized chip, and allowed to interact to each FcγR diluted with running buffer. To regenerate and repeatedly use the chip, the antibodies captured on the chip were washed off by reacting 10 mM glycine-HCl, pH 1.5.

The target in assay [2] is T2, FcγRIIa R (FcγRIIa allotype with Arg at position 131), extracellular domain with C-terminal His tag (human, UniProt P12318 34-217).
T2 chain: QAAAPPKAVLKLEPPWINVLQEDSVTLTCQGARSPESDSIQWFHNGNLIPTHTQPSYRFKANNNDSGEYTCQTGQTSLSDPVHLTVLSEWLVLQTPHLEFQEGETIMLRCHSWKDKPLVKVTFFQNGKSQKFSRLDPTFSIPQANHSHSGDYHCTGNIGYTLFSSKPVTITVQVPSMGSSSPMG
Described as above. On the procedure: as §1, §2

For assay [3], the target named is T2, FcγRIIa R (FcγRIIa allotype with Arg at …). The assay is described as follows: SPR (Biacore T100); ratio of He/Con for FcγRIIa R to He/Con for FcγRIIb of the same antibody.
Assay [4] deals with T3, FcgRIIa R (human, UniProt P12318 34-217).
T3 construct: extracellular domain; also called FcγRIIa R; FcγRIIa type R
T3 sequence (looked up): T2 chain
The assay is described as follows: SPR (Biacore); KD of GpH7-Kn033/GpH7-Hl033/GpL16-k0 for this FcγR divided by KD of this antibody. On the procedure:
(§3) These antibodies were assessed for the binding activity to each FcγR according to the method described in Reference Example 2.
as §2
(Surface plasmon resonance follows binding to a sensor surface in real time, without labels.)

Assay [5] has as its target T4, FcgRIIIa F (human, UniProt P08637 17-208).
T4 construct: extracellular domain; also called FcγRIIIa F; FcγRIIIaF
The assay is described as above. As to the method:
as §3, §2

In assay [6] the target is T5, FcgRIIa H (human, UniProt P12318 34-217).
T5 construct: extracellular domain; also called FcγRIIa H; FcγRIIa type H
T5 sequence (looked up): T2 chain with R134H
Described as above. As to the method:
as §3, §2

The target in assay [7] is T6, FcgRIIIa V (human, UniProt P08637 17-208).
T6 construct: extracellular domain; also called FcγRIIIa V; FcγRIIIaV
The assay is described as above. As to the method:
as §3, §2

Assay [8] deals with T7, FcgRIa (human, UniProt P12314 16-292).
T7 construct: extracellular domain; also called FcγRIa; FcγRI
The description is as above. On the procedure: as §3, §2

The target of assay [9] is T8, FcgRIIb (human, UniProt P31994 43-217).
T8 construct: extracellular domain; also called FcγRIIb; CD32B
T8 sequence (looked up): T1 sequence (looked up)
The assay is described as above. As to the method: as §3, §2

T4 sequence (P08637 17-208): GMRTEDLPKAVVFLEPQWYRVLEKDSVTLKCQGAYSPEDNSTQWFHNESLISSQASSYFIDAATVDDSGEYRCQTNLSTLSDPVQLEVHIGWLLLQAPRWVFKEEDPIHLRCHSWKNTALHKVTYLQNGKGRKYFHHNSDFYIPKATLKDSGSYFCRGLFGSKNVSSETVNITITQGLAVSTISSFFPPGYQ
T7 sequence (P12314 16-292): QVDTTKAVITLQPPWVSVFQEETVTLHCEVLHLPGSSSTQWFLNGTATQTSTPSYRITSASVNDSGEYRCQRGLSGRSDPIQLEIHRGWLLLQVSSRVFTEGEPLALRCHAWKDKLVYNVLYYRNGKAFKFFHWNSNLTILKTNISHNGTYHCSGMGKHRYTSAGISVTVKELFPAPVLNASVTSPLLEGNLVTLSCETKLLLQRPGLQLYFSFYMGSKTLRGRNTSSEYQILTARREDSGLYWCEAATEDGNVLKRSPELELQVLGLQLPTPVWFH
T6 sequence (P08637 17-208 F176V limits assumed): as the sequence (P08637 17-208) above, with F160V counted along it

B1: GpH7-A5/GpH7-B3 variant L328_13S/GpL16-k0 (heterodimerized antibody He Ab, L328S in one H chain) (antibody, human IgG1, kappa)
heavy 1: not shown
heavy 2: not shown
light: DIVMTQSPLSLPVTPGEPASISCQASESLVHSNRNTYLHWYLQKPGQSPQLLIYKVSNRFSGVPDRFSGSGSGTDFTLKISRVEAEDVGVYYCSQNTHVPPTFGQGTKVEIERTVAAPSVFIFPPSDEQLKSGTASVVCLLNNFYPREAKVQWKVDNALQSGNSQESVTEQDSKDSTYSLSSTLTLSKADYEKHKVYACEVTHQGLSSPVTKSFNRGEC
notes: Anti-glypican-3 human IgG1-type antibody; the alteration is in only one of the two H chains (the GpH7-B3 chain)
As to B1, the “He/Con_2b (IIb binding)” value in assay [1] was 149 relative binding activity, GpH7-A5/GpH7-B3/GpL16-k0 = 100. Further, the “He/Con_2aR (IIaR binding)” value in [2] was 117 relative binding activity, GpH7-A5/GpH7-B3/GpL16-k0 = 100. The “He_2aR/2b (IIaR/IIb)” value in [3] was determined as 0.78.

B2: GpH7-A5/GpH7-B3 variant I332_11K/GpL16-k0 (heterodimerized antibody He Ab, I332K in one H chain) (antibody, human IgG1, kappa)
heavy 1: not shown
heavy 2: not shown
light: B1 light
notes: as for B1
In the case of B2, the “He/Con_2b (IIb binding)” value in assay [1] is 70.9 relative binding activity, GpH7-A5/GpH7-B3/GpL16-k0 = 100. The “He/Con_2aR (IIaR binding)” value in assay [2] is 43.1 relative binding activity, GpH7-A5/GpH7-B3/GpL16-k0 = 100. Besides, in [3], the “He_2aR/2b (IIaR/IIb)” value was 0.61.

B3: GpH7-Kn032/GpH7-Hl032/GpL16-k0 (antibody, human IgG1, kappa)
heavy 1: QVQLVQSGAEVKKPGASVTVSCKASGYTFTDYEMHWIRQPPGEGLEWIGAIDPKTGDTAYSESFQDRVTLTADKSTSTAYMELSSLTSEDTAVYYCTRFYSYTYWGQGTLVTVSSASTKGPSVFPLAPSSKSTSGGTAALGCLVKDYFPEPVTVSWNSGALTSGVHTFPAVLQSSGLYSLSSVVTVPSSSLGTQTYICNVNHKPSNTKVDKKVEPKSCDKTHTCPPCPAPELLGGPDVFLFPPKPKDTLMISRTPEVTCVVVDVSHEDPEVKFNWYVDGVEVHNAKTKPREEQYNSTYRVVSVLTVLHQDWLNGKEYKCKVSNKALPLPEEKTISKAKGQPREPQVCTLPPSRDELTKNQVSLWCLVKGFYPSDIAVEWESNGQPENNYKTTPPVLDSDGSFFLYSKLTVDKSRWQQGNVFSCSVMHEALHNHYTQKSLSLSP
heavy 2: B3 heavy 1 with C347Y, D354C, W364S, L366A, Y405V
light: B1 light
notes: also called Kn032/Hl032
On to B3, for which the KD ratio in assay [4] stood at 3 fold; in [5] it was 381 fold; in assay [6], 1.2 fold; in assay [7] it was 182 fold; in assay [8], 24 fold; in [9], 8.2 fold.

B4: GpH7-Kn037/GpH7-Hl036/GpL16-k0 (antibody, human IgG1, kappa)
heavy 1: B3 heavy 1 with G234A, L328A
heavy 2: B3 heavy 1 with G234A, L328A, C347Y, D354C, W364S, L366A, Y405V
light: B1 light
notes: also called Kn037/Hl036
Consider B4, for which the KD ratio in [4] came to 43 fold; in assay [5], 161 fold; in assay [6], 22 fold; in assay [7], 84 fold; in assay [8], 6 fold; in assay [9], 16 fold.

B5: GpH7-Kn045/GpH7-Hl048/GpL16-k0 (antibody, human IgG1, kappa)
heavy 1: B3 heavy 1 with L232Y, L233Y, G234A, D237S, H266D, S296A, L328A, E330I
heavy 2: B3 heavy 1 with G234A, L328K, C347Y, D354C, W364S, L366A, Y405V
light: B1 light
notes: Heterodimerized antibody: knob chain L234Y/L235Y/G236A/H268D/S298A, hole chain G236A/S239D/A330K/I332E; also called Kn045/Hl048
As to B5, the KD ratio turned out to be 154 fold in [4]; 419 fold in [5]; 52 fold in assay [6]; 170 fold in assay [7]; 3.7 fold in [8]; 34 fold in [9].

B6: GpH7-A5/GpH7-B3 variant L328_15Y/GpL16-k0 (heterodimerized antibody He Ab, L328Y in one H chain) (antibody, human IgG1, kappa)
heavy 1: not shown
heavy 2: not shown
light: B1 light
notes: as for B1
On to B6, for which, in assay [1], the “He/Con_2b (IIb binding)” value was 193 relative binding activity, GpH7-A5/GpH7-B3/GpL16-k0 = 100. In addition, the “He/Con_2aR (IIaR binding)” value in assay [2] was 136 relative binding activity, GpH7-A5/GpH7-B3/GpL16-k0 = 100. In addition, the “He_2aR/2b (IIaR/IIb)” value in assay [3] came to 0.7.

B7: GpH7-Kn056/GpH7-Hl055/GpL16-k0 (antibody, human IgG1, kappa)
heavy 1: B3 heavy 1 with L232Y, L233Y, G234A, D237S, H266D, Q293L, S296A, L328A, E330I
heavy 2: B3 heavy 1 with G234A, Q293L, L328M, C347Y, D354C, W364S, L366A, Y405V
light: B1 light
notes: Heterodimerized antibody: knob chain L234Y/L235Y/G236A/H268D/Q295L/S298A, hole chain G236A/S239D/Q295L/A330M/I332E; also called Kn056/Hl055
On to B7, for which the KD ratio in assay [4] turned out to be 44 fold; in assay [5], 1110 fold; in assay [6], 20 fold; in assay [7] it was 327 fold; in assay [8] it was 2.9 fold; in [9] it was 14 fold.

B8: GpH7-A5/GpH7-B3 variant L328_18N/GpL16-k0 (heterodimerized antibody He Ab, L328N in one H chain) (antibody, human IgG1, kappa)
heavy 1: not shown
heavy 2: not shown
light: B1 light
notes: as for B1
As for B8, the “He/Con_2b (IIb binding)” value in assay [1] was 80.8 relative binding activity, GpH7-A5/GpH7-B3/GpL16-k0 = 100. Moreover, in [2], the “He/Con_2aR (IIaR binding)” value was 59.4 relative binding activity, GpH7-A5/GpH7-B3/GpL16-k0 = 100. The “He_2aR/2b (IIaR/IIb)” value in assay [3] is 0.73.

B9: GpH7-Kn045/GpH7-Hl055/GpL16-k0 (antibody, human IgG1, kappa)
heavy 1: B3 heavy 1 with L232Y, L233Y, G234A, D237S, H266D, S296A, L328A, E330I
heavy 2: B3 heavy 1 with G234A, Q293L, L328M, C347Y, D354C, W364S, L366A, Y405V
light: B1 light
notes: Heterodimerized antibody: knob chain L234Y/L235Y/G236A/H268D/S298A, hole chain G236A/S239D/Q295L/A330M/I332E; also called Kn045/Hl055
With B9, the KD ratio in [4] was 56 fold; in assay [5], 985 fold; in assay [6], 21 fold; in assay [7], 300 fold; in assay [8] it was 3.7 fold; in assay [9], 15 fold.

B10: GpH7-A5/GpH7-B3 variant L328_20W/GpL16-k0 (heterodimerized antibody He Ab, L328W in one H chain) (antibody, human IgG1, kappa)
heavy 1: not shown
heavy 2: not shown
light: B1 light
notes: as for B1
With B10, the “He/Con_2b (IIb binding)” value in [1] is 235 relative binding activity, GpH7-A5/GpH7-B3/GpL16-k0 = 100. Moreover, the “He/Con_2aR (IIaR binding)” value in assay [2] is 155 relative binding activity, GpH7-A5/GpH7-B3/GpL16-k0 = 100. The “He_2aR/2b (IIaR/IIb)” value in [3] turned out to be 0.66.
